# Patent US20090075304A1 (published 2009)
# Target: T1, activated soluble HLA-A*0201
# T1 construct: MHC class I molecule that receives peptide in the fluorescence polarization assay (PolyTest); also called sHLA
# Experiment: fluorescence polarization competition (PolyTest)
row,binding result,Binder
1,binds,"GVLPALPQV (also called GVL(47)) [GVLPALPQV, human chorionic gonadotropin-beta peptide 47-55]"
2,binds,"TMTRVLQGV (also called TMT(40)) [TMTRVLQGV, human chorionic gonadotropin-beta peptide 40-48]"
3,binds,"VLQGVLPAL (also called VLQ(44)) [VLQGVLPAL, human chorionic gonadotropin-beta peptide 44-52]"
